Test results taken from paper PMC3713010, “Sox2 Transcriptionally Regulates Pqbp1, an Intellectual Disability-Microcephaly Causative Gene, in Neural Stem Progenitor Cells”.

What was measured:
[1] = target: Sox2;Pax6 (Mus musculus (B6);Mus musculus (B6), UniProt P48432;P63015 1-319;1-422, |); experiment: EMSA; supershift with anti-Pax6; EMSA: 20 ng GST-fusion protein, 20 mM HEPES pH 7.8, 45 mM KCl, 10 mM NaCl, 1 mM EDTA, 1 mM DTT, 10% glycerol, 0.2 ug/uL BSA, 0.1% NP-40, 50 ng poly-dIdC; RT 30; conditions: protein: recombinant;recombinant; tags: GST (N-terminal, pGEX-6P-1);GST (N-terminal, pGEX-6P-1); copies: 1;1; label: 32P
[2] = target: Sox2;Brn2 (Mus musculus (B6);Mus musculus (B6), UniProt P48432;P31360 1-319;1-445, |); experiment: EMSA; supershift with anti-Brn2; EMSA: 20 ng GST-fusion protein, 20 mM HEPES pH 7.8, 45 mM KCl, 10 mM NaCl, 1 mM EDTA, 1 mM DTT, 10% glycerol, 0.2 ug/uL BSA, 0.1% NP-40, 50 ng poly-dIdC; RT 30; conditions: protein: recombinant;recombinant; tags: GST (N-terminal, pGEX-6P-1);GST (N-terminal, pGEX-6P-1); copies: 1;1; label: 32P
Chain of Sox2;Brn2 (P48432 whole entry, chain 1 of 2, the tested form may be a part): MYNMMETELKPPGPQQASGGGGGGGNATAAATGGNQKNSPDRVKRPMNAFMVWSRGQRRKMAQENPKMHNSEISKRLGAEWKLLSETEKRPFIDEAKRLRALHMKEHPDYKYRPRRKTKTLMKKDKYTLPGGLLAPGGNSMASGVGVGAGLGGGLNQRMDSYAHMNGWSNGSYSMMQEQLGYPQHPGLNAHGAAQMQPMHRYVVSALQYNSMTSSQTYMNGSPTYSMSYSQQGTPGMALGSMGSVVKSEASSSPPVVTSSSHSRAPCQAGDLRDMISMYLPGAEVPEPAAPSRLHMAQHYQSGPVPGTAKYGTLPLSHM
Chain of Sox2;Brn2 (P31360 whole entry, chain 2 of 2, the tested form may be a part): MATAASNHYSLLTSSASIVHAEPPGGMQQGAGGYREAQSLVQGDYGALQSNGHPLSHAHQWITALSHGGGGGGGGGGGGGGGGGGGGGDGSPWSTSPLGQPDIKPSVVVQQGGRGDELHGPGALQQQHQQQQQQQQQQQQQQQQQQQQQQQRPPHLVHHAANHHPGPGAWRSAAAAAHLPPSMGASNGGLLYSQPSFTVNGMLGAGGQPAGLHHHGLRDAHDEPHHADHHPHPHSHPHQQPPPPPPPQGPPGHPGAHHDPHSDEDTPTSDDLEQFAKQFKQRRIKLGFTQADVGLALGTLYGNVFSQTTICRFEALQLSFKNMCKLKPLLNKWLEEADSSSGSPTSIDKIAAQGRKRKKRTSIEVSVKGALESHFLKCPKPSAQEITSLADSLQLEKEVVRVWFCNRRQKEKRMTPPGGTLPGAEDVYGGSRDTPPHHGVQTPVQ

Chain of Sox2;Pax6 (P48432 whole entry, chain 1 of 2, the tested form may be a part): as the sequence (P48432 whole entry, chain 1 of 2, the tested form may be a part) above
Chain of Sox2;Pax6 (P63015 whole entry, chain 2 of 2, the tested form may be a part): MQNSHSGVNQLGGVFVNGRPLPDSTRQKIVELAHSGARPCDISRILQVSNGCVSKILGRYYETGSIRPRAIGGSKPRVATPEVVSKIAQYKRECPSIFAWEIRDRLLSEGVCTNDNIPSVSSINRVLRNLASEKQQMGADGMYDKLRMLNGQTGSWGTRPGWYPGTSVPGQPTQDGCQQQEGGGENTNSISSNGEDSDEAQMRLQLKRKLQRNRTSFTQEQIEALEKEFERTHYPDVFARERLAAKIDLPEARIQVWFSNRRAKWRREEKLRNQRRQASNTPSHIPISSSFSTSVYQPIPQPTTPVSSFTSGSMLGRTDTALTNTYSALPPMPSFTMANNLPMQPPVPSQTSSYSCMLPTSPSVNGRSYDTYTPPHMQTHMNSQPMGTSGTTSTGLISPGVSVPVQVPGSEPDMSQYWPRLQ

B1: Sox2-Pax6 consensus probe (dsDNA)
DNA 1: GGGAAATATTCATTGTTGTTGCTCACCTACCATGGA
DNA 2: TCCATGGTAGGTGAGCAACAACAATGAATATTTCCC
binding result [1]: binds

B2: Sox2-Brn2 consensus probe (dsDNA)
DNA 1: GGGTAGTGTGGACAAAAGGCAATAATTAGCATGAGAATC
DNA 2: GATTCTCATGCTAATTATTGCCTTTTGTCCACACTACCC
binding result [2]: binds
